Where no end group is shown, it is not given here.
Key:
[1] = target: rat CRF receptor type 2α (rat) (UniProt P47866); experiment: radioligand displacement ([125I-Tyr0,Glu1,Nle17]-sauvagine), CHO membranes
[2] = target: mouse CRF receptor type 2β (mouse) (UniProt Q60748); experiment: as above
[3] = target: endogenous CRF-R2β of A7r5 rat aortic smooth muscle cells (rat), P47866; experiment: cell-based or functional assay
endogenous CRF-R2β of A7r5 rat aortic smooth muscle cells (rat), P47866, sequence (P47866 20-411): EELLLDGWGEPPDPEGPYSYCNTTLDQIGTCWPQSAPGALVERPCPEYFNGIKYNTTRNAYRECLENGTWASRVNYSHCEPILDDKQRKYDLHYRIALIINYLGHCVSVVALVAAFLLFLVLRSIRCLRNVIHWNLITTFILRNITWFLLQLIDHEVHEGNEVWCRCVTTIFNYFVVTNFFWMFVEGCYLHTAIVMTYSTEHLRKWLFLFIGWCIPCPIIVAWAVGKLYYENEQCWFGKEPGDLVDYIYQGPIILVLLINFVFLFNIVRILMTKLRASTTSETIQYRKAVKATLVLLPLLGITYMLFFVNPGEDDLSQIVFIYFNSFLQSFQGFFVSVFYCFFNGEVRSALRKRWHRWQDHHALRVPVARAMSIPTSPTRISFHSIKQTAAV

rat CRF receptor type 2α (rat), sequence (P47866 20-411): as above

Row | Ki [1] [nM] | Ki [2] [nM] | cAMP accumulation in A7r5 rat aortic smooth muscle cells, EC50 [3] [nM] | Binder
1 | 5 | 1.8 | 3.7 | FTLSLDVPTNIMNILFNIDKAKNLRAKAAANAQLMAQI-NH2 [Urocortin III (mouse)]
2 | – | – | 0.18 | VILSLDVPIGLLRILLEQARYKAARNQAATNAQILAHV (peptide, UniProt Q99ML8 73-110, looked up) [Urocortin II (mouse), Q99ML8 73-110]
3 | 2.1 | 0.66 | – | VILSLDVPIGLLRILLEQARYKAARNQAATNAQILAHV (peptide, UniProt Q99ML8 73-110, looked up) [Urocortin II (mouse)]
4 | 1.7 | 0.5 | – | IVLSLDVPIGLLQILLEQARARAAREQATTNARILARV (peptide, UniProt Q96RP3 72-109, looked up) [Urocortin II (human)]
5 | 21.7 | 13.5 | 80.9 | FTLSLDVPTNIMNLLFNIAKAKNLRAQAAANAHLMAQI-NH2 [Urocortin III (human)]

Reference: patent publication US20040143095A1
